Consider seven molecules from publication PMC4005694, “Archaeal aminoacyl-tRNA synthetases interact with the ribosome to recycle tRNAs” (Nucleic Acids Research, 2014).

B1: ribosomal protein L3p of M. thermautotrophicus, as it stands in the ribosome (natural protein, UniProt O26110 1-337, looked up)
chain: MARHHQPRKGSVAFSPRKRAARETPRVKSWPQVDEPGLLALAGYKAGMTHVMMVDNQKNSPTEGMEVSTPVTILEVPPLTVMAVRTYEKTSRGLKTLGEVLATETKDDLRRKLTPPADDYDQEAAIEKIRSNMEYVADVRVIVHTNPRLASVPKKKPEVFECGLGGKTPEEKFEYALEILGKDVRASEIFSEGAFVDAIAVTKGKGFQGPVKRWGIRIQYGKAARSSKGRHIGSLGPWTPSRTMWTVPQAGQMGYHRRTEYNKQILKIGDASEADLVNPDGGFVRYGLVRNDYVMIKGSVPGPTKRLVVLRKAIRAAGKQEEAPQINYISTASKQGV
notes: ribosomal protein L3 of M. thermautotrophicus, Mr 37 kDa as printed; Cross-linked while part of the ribosome; source: endogenous, in 70S ribosomes purified from M. thermautotrophicus cells
B2: recombinant ribosomal protein L3 of M. thermautotrophicus (natural protein, UniProt O26110 1-337, looked up)
chain: B1 chain
notes: ribosomal protein L3 of M. thermautotrophicus; gene inserted into pGEX-6P-2 via BamHI and EcoRI; The methods say both that the GST tag was removed and that GST-tagged proteins are appropriate for SPR; source: E. coli BL21 Rosetta, purified (GST-Sepharose)
B3: ribosomal protein L10 (P0 homologue) of M. thermautotrophicus, as it stands in the ribosome (natural protein, UniProt O27717 1-336, looked up)
chain: MAHVAEWKKKEVQELHDLIKGYEVVGIANLADIPARQLQKMRQTLRDSALIRMSKKTLISLALEKAGRELENVDSLSDYMEGQPALIFTDMNPFKLFKILEDSKTPAPAKPGAIAPDDIVVPKGDTGFAPGPILGELQQIGIPAKIEKGKIVVSNDHVVVKAGEEIPPKVAGILTRLDIQPLEVGIDLRAAYENQTVYTADVLTIDEEKTLSDIQKAFSQAFNLSVNAVIYTRETMPAIIQKAASKSFNLAYNASILTSETTDLLLAKAYAQMLALAAAAAEINDEAVDDELKEKLSSRAAAPAPEEKEEEVEEEAEEEEEEEEEDAAAGLGALFG
notes: ribosomal protein L10 (P0 homologue) of M. thermautotrophicus, Mr 37 kDa as printed; Cross-linked while part of the ribosome; source: endogenous, in 70S ribosomes purified from M. thermautotrophicus cells
B4: recombinant ribosomal protein L10 of M. thermautotrophicus (natural protein, UniProt O27717 1-336, looked up)
chain: B3 chain
notes: ribosomal protein L10 (P0 homologue) of M. thermautotrophicus; gene inserted into pGEX-6P-2 via BamHI and SalI; The methods say both that the GST tag was removed and that GST-tagged proteins are appropriate for SPR; also called P0; source: E. coli BL21 Rosetta, purified (GST-Sepharose)
B5: recombinant ribosomal protein L6 of M. thermautotrophicus (natural protein)
chain: not shown
notes: ribosomal protein L6 of M. thermautotrophicus; whole-length gene amplified from genomic DNA, cloned into pPROex-Htb via BamHI and SalI; source: E. coli BL21 Rosetta, purified (Ni-NTA agarose)
B6: Methanothermobacter thermautotrophicus arginyl-tRNA synthetase (enzyme, M. thermautotrophicus, UniProt O27496 1-560, looked up)
chain: MFRYIEKEARDSITAALEKLGIKVPPEIKLEEPPNPQLGDLASTVSFELAGKLRRAPIEITADIMSVIETPEIFETIESKGPYINFFVDYGRFSSRLLESIQDDYGSHPPRDERVILEHTSANPNGPLHIGHIRNAIIGDSLARILRMAGYDVETQYYVNDMGRQIAMIVWGLLNLDGDLEDYPGDKMDHRVGKLYFEVNQRLKENPGIRDEVDELIRKYEAGENEELFRKVVEYCLSGMEETMKRLHVHHDRFVWEGQFVRDGTVDRVIESLRKTGYTGENDVLYLDLEEFGLEKELVLTRSDGTSLYSTRDIAYHLQKSEEGDVIIDVLGSDHKLAAEQVGIAVELLGGKRPEVIFYEFITLPEGSMSTRRGVFISVDELMDEAHSRALHEVKKRRDLPDDVADDIAESIGNGAIRYYIARLSPEKHIVFRWDDALSFERGCASIQYAHARACKLLEKASFTGEEDIEDGWKPEGDERELVRLLARFPVVVEESALARRVHPVAQYAQDLANTFNSFYRSTPVIGSDFEGARLRLVDSVRKTLRNALNLLGIHAPETM
notes: arginyl-tRNA synthetase of M. thermautotrophicus; gene inserted into pPROex-Htb as a BamHI and XhoI cassette; His-tagged ArgRS is named only for the Ni-NTA SPR surface; also called ArgRS; source: E. coli BL21 Rosetta, purified (Ni-NTA agarose)
B7: recombinant ribosomal protein L12 of M. thermautotrophicus (natural protein, UniProt P05394 1-101, looked up)
chain: MEYIYAAMLLHTTGKEINEENVKSVLEAAGAEVDDARVKALIAALEDVDIEEAMETTAVAAAPAAAAAPAAAEEAEEEAEEEEEEEEAEEEAAAGLGALFG
notes: ribosomal protein L12 (P1 homologue) of M. thermautotrophicus; whole-length gene amplified from genomic DNA, cloned into pPROex-Htb via NcoI and SalI; also called P1; source: E. coli BL21 Rosetta, purified (Ni-NTA agarose)

What all share (settings): both partners purified
The target of test [1] is B6. Briefly: cross-linking; 70S ribosomes incubated with mSerRS or ArgRS; EDC; quenched; complexes pelleted; SDS-PAGE and mass spectrometry.
For test [2], the target named is T1, Methanothermobacter thermautotrophicus methanogenic-type seryl-tRNA synthetase (M. thermautotrophicus, UniProt O27194 1-513).
T1 construct: methanogenic-type seryl-tRNA synthetase (mSerRS) of M. thermautotrophicus; Labelled with DY-495 in the MST experiment with L12; coupled by amines to a CM5 chip in SPR; also called mSerRS; SerRS
T1 sequence (looked up): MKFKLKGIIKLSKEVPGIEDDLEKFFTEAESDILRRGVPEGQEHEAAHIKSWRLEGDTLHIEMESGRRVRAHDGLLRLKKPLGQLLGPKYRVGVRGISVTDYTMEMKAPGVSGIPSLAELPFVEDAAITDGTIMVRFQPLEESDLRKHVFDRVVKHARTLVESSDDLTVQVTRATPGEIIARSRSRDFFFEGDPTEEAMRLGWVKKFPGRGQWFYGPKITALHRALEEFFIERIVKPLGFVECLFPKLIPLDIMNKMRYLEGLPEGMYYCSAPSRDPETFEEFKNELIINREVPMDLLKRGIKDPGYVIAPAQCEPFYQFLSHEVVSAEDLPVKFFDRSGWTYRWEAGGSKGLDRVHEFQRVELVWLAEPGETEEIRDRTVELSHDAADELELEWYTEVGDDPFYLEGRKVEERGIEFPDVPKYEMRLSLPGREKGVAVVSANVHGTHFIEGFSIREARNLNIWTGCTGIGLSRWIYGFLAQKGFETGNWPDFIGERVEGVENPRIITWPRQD
Briefly: SPR; mSerRS amine-coupled to a CM5 chip (~800 RU), ribosomal proteins or controls as analytes; 25°C, Biacore T100, 10 µl/min; steady state affinity model.

Test [3] addresses B6. Briefly: SPR; ArgRS with ribosomal proteins; Ni-NTA surface used to immobilise His-tagged ArgRS, L6 or L12; which was held for which pair is not told; 25°C, Biacore T100. A general note: SPR reads the build-up and loss of mass on a sensor chip optically.
Test [4] addresses T2, elongation factor EF-G of M. thermautotrophicus, found in the cross-linking experiment with 70S ribosomes (M. thermautotrophicus (endogenous in M. …, UniProt O27131 1-730)).
T2 construct: EF-G of M. thermautotrophicus, Mr 81 kDa as printed; source: endogenous, in the 70S ribosome preparation from M. thermautotrophicus cells
T2 sequence (looked up): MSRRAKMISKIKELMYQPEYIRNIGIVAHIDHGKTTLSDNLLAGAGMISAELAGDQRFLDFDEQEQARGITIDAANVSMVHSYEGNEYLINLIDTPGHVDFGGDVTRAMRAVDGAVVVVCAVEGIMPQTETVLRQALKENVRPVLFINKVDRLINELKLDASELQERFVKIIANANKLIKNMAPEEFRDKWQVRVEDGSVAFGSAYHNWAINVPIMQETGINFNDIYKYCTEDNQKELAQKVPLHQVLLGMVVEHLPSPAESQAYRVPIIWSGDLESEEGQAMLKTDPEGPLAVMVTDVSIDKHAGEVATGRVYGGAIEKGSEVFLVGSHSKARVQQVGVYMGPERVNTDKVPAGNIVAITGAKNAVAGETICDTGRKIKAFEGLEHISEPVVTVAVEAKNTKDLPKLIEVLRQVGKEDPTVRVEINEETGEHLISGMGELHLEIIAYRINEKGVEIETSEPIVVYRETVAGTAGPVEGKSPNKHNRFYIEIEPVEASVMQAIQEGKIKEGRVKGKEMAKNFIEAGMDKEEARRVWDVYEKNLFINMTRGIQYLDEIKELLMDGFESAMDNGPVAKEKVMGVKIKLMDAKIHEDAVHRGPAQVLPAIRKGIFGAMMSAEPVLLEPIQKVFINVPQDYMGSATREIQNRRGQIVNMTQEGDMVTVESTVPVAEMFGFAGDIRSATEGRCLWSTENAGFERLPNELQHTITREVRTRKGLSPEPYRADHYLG
As to the kind of experiment: cross-linking; 70S ribosomes incubated with mSerRS or ArgRS; EDC; quenched; complexes pelleted; SDS-PAGE and mass spectrometry.

The target of test [5] is T1, Methanothermobacter thermautotrophicus …. As to the kind of experiment: MST; labelled mSerRS kept constant, unlabelled L12 titrated 0.528 nM-17.32 µM; Monolith NT.115.

In the case of B1, in test [1], the binding result is listed as “binds”.
For orientation: Kd means the equilibrium constant for the complex coming apart. Low readings indicate a tighter complex, high ones a looser complex. B2: the Kd in test [2] stood at 54 nM. The binding result in test [3] is recorded as “binds”.
B3: the binding result in test [1] is given as “binds”.
B4 displayed a Kd in test [2] of 39 nM. The binding result in test [3] is “binds”.
As to B5, binding in test [2] was characterised by a dissociation constant (Kd) of 240 nM. Moreover, the binding result in test [3] is given as “binds”.
In the case of B6, the binding result in test [4] is “binds”.
As for B7, the dissociation constant (Kd) in test [5] came out at 460 nM; in test [2], 170 nM.
